{
  "source": "paper PMC7616709",
  "about": "(Molecular cell, 2024)",
  "proteins": {"B1": {"name": "WDR26 (subunit of the recombinant WDR26-CTLH E3) (natural protein, human, UniProt Q9H7D7 1-661, looked up)", "chain": "MQANGAGGGGGGGGGGGGGGGGGGGQGQTPELACLSAQNGESSPSSSSSAGDLAHANGLLPSAPSAASNNSNSLNVNNGVPGGAAAASSATVAAASATTAASSSLATPELGSSLKKKKRLSQSDEDVIRLIGQHLNGLGLNQTVDLLMQESGCRLEHPSATKFRNHVMEGDWDKAENDLNELKPLVHSPHAIVVRGALEISQTLLGIIVRMKFLLLQQKYLEYLEDGKVLEALQVLRCELTPLKYNTERIHVLSGYLMCSHAEDLRAKAEWEGKGTASRSKLLDKLQTYLPPSVMLPPRRLQTLLRQAVELQRDRCLYHNTKLDNNLDSVSLLIDHVCSRRQFPCYTQQILTEHCNEVWFCKFSNDGTKLATGSKDTTVIIWQVDPDTHLLKLLKTLEGHAYGVSYIAWSPDDNYLVACGPDDCSELWLWNVQTGELRTKMSQSHEDSLTSVAWNPDGKRFVTGGQRGQFYQCDLDGNLLDSWEGVRVQCLWCLSDGKTVLASDTHQRIRGYNFEDLTDRNIVQEDHPIMSFTISKNGRLALLNVATQGVHLWDLQDRVLVRKYQGVTQGFYTIHSCFGGHNEDFIASGSEDHKVYIWHKRSELPIAELTGHTRTVNCVSWNPQIPSMMASASDDGTVRIWGPAPFIDHQNIEEECSSMDS", "notes": "WDR26, human, from human cDNA library (pFLN WDR26); The models 8QE8 and 8QBN exclude the CTLH-CRA^N domain of WDR26; also called WDR26 dimer"}},
  "biological_target": "the molecule itself",
  "data": [
    {"protein": "B1", "values": [
      {"measurement": "stoichiometry N", "value": 2}
    ]}
  ]
}
